# In article PMC6978347:
# How the values were obtained:
# [1] = molecular target: polymerization-deficient p62^1–102 (D69A/D73A) (human) (UniProt Q13501); assay: ITC; VP-ITC, 25 °C, 10 mM HEPES pH 7.5, 150 mM NaCl; p62 D69A/D73A in the cell (5–20 μM), partner PB1 domain in the syringe (25–100 μM); one-site model; mean of three measurements
# [2] = molecular target: p62 PB1 (Homo sapiens) (UniProt Q13501); conditions: cited from earlier work
Substance,Kd [1],Kd [2]
NBR1^1–85 (human NBR1–PB1) (from UniProt Q14596 1-85) (domain or fragment),12.6 nM,
PKCζ^11–101 (pKCζ–PB1) (from UniProt Q05513 11-101) (domain or fragment),8.9 nM,
p62 PB1 (from UniProt Q13501),,6 nM
